Each block holds one binder with its values, some of them ahead of it.
Experiments:
[1] = target: T1, human PD-L1 expressed on cells (HCC827, NCI-H292, CHO-PD-L1, engineered CHO-K1) (human, UniProt Q9NZQ7 19-290); test: flow cytometry on NCI-H292 cells, apparent Kd
T1 construct: whole, on cells; Endogenous on the human lung lines HCC827 and NCI-H292; transfected on CHO cells; also called PD-L1 on HCC827; PD-L1 on NCI-H292
Method: (§1) FIG. 14 is a graph showing binding of chimeric PD-L1 antibodies to HCC827 (FIG. 14A) and NCI-H292 (FIG. 14B) lung epithelial cell lines. Binding was measured using a FACS analysis with a […] secondary antibody. MFI=mean fluorescence intensity.
(§2) Purified chimeric antibodies were evaluated for their ability to bind PD-L1 expressed on two human cancer cell lines. HCC827 and NCI-292 cells were incubated with titrated antibodies for 30 min at 4° C. Cells were washed and incubated with AF647-labeled goat anti-human IgG(H+L) for 30 min at 4° C. Cells were washed, fixed and analyzed on FACSCelesta.

[2] = target: T2, cynomolgus PD-L1, his tagged (cPD-L1-his) (cynomolgus (Macaca fascicularis), UniProt G7PSE7 19-238); test: BLI (ForteBio Octet), IgG on AHC sensor, cPD-L1-his analyte, 1:1 fit
T2 construct: also called cyPD-L1-His; Cyno PD-L1
T2 sequence (G7PSE7 entry or part of it limits assumed, form in doubt): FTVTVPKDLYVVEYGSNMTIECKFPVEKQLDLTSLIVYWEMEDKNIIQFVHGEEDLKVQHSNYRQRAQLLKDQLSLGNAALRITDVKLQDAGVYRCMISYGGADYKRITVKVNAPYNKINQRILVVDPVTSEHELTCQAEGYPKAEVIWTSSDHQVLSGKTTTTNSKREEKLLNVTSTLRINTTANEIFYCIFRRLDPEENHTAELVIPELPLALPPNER
Method: (§3) Characterization of chimeric anti-PD-L1 antibodies. ForteBio octet binding of purified chimeric antibodies and recombinant hPD-L1-his and cPD-L1-his was measured. Chimeric human antibodies were captured on AHC (Anti-human IgG-Capture) Biosensor, hPD-L1-his or cPD-L1-his analytes were titrated from 100 nM in a 2× series dilution. The buffer reference was subtracted from the signal and aligned to the baseline. KD, Kon and Koff values were generated using 1:1 fitting model as described above.

[3] = target: T3, human PD-L1 Fc fusion (hPD-L1-Fc) (human, UniProt Q9NZQ7 19-238, limits assumed); test: blocking ELISA: antibody titrated + biotin-hPD-1-Fc on coated hPD-L1-Fc
T3 construct: not shown: Fc part
T3 sequence (Q9NZQ7 19-238 limits assumed): as the sequence (G7PSE7 entry or part of it limits assumed, form in doubt) above, with T33A, S34A, N62S, Q68R, R82Q, L173F, A185T, I192T, L215H counted along it
Excerpt: The plate was developed with TMB and Stop buffer, the absorbance at 450 nm was read using SpectraMax plate reader. The A450 absorbance was normalized to the control that without antibody for the percentage values. The curve and IC₅₀ were generated using GraphPad Prism software.
Protein A purified chimeric antibodies were examined by size exclusion chromatography and quantified with a UV-Vis spectrophotometer (NanoDrop; mAU=milli absorbance units).

[4] = target: T1, human PD-L1 expressed on cells (HCC827, …); test: flow cytometry MFI, CHO-PD-L1 cells (10 nM) against parental CHO cells (100 nM)
Method: CHO cells were incubated with 100 nM antibodies and CHO-PD-L1 cells (from Bioassay) with 10 nM antibodies for 30 min at 4° C. Cells were washed and incubated with goat anti-human IgG(H+L) for 30 in at 4° C. The washed cells were fixed and run on FACSCelesta.

[5] = target: T1, human PD-L1 expressed on cells (HCC827, …); test: flow cytometry on HCC827 cells, apparent Kd
Method: as §1, §2

[6] = target: T1, human PD-L1 expressed on cells (HCC827, …); test: cell-based or functional assay
[7] = target: T4, human PD-L1, his tagged (hPD-L1-his) (human, UniProt Q9NZQ7 19-238, limits assumed); test: BLI (ForteBio Octet), IgG on AHC sensor, hPD-L1-his analyte, 1:1 fit
T4 construct: also called huPD-L1-His; recombinant human PD-L1; not shown: his tag
T4 sequence (Q9NZQ7 19-238 limits assumed): as the sequence (G7PSE7 entry or part of it limits assumed, form in doubt) above, with T33A, S34A, N62S, Q68R, R82Q, L173F, A185T, I192T, L215H counted along it
Method: as §3

[8] = target: T2, cynomolgus PD-L1, his tagged …; test: BLI (ForteBio Octet), cPD-L1-his
Method: as §3, with “above. […]” for “above.”

[9] = target: T4, human PD-L1, his tagged (hPD-L1-his); test: BLI (ForteBio Octet), hPD-L1-his
Method: as §3, with “above. […]” for “above.”

[10] = target: T2, cynomolgus PD-L1, his tagged …; test: BLI (ForteBio Octet), cPD-L1-his analyte, 1:1 fit
Method: as §3

[11] = target: T4, human PD-L1, his tagged (hPD-L1-his); test: BLI (ForteBio Octet), recombinant human PD-L1
[12] = target: T4, human PD-L1, his tagged (hPD-L1-his); test: BLI (ForteBio Octet), hPD-L1-his; remark: listed apart in the source
Method: as §3
Selected h769 antibodies were tested in the blocking ELISA as described in Example 3 herein. […] Selected h769 humanized PD-L1 antibodies were characterized following removal of the deamidation motif in CDR-L3. FIG. 25 depicts the ForteBio octet binding of purified humanized antibodies and recombinant hPD-L1-his was measured.

T1 sequence (Q9NZQ7 19-290, change not shown): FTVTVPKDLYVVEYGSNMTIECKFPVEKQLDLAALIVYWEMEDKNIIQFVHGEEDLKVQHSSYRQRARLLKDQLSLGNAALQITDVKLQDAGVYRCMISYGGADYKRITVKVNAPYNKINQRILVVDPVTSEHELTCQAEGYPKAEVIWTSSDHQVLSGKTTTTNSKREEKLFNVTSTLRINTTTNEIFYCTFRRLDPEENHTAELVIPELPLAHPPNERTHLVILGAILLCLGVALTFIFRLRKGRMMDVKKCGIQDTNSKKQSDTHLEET

B3: 752-hIgG1 (chimeric PAL752) (antibody, V domains shown)
VH: EVQLQESGAELARPGASVKLSCKASGHAFTSDSINWVKQRIGQGLEWIGEIYPRSGNPYYNEKFKGKATLTADKSSSTAYMELRSLTSEDSAVYFCATDYYGRYFDVWGTGTTVTVSS
VL: DIQMTQSSFSFSVSLGDRVTIICKASEDIYNRLAWYQQKPGNTPRLLISGATSLETGVPSRFSGSGSGKDYTLSITSLQTEDVATYYCQQYWSTPWTFGGGTKLEIK
- Kd [1]: 4.98 nM
- Kd [2]: 3.18 nM
- IC50 [3]: 4.6 nM
- Kd [5]: 3.63 nM
- IC50, nM (Function) [6]: 1.5 nM
- Kd [7]: 1.18 nM

B4: 785-hIgG1 (chimeric PAL785) (antibody, V domains shown)
VH: EVQLQESGPELVKPGTSVKMSCKASGYTFTSYVMHWVKQRPGQGLEWIGYINPYNDGSKYNEKFKGKATLTSDTSSSTAYMELSSLTSEDSAVYYCAKQTLDFWGQGTSVTVST
VL: DIVLTQSPASLAVSLGQRATISCRASESVEFYGTTLMQWYQQKPGQPPKLLIYAASNVESGVPARFSGSGSGTDFSLNIHPVEEGDIGMYFCQQSRKVPYTFGGGTKLEIK
- Kd [1]: 0.19 nM
- Kd [2]: 0.724 nM
- IC50 [3]: 1.9 nM
- Bind PD-L1-CHO/CHO [4]: > 100 x
- Kd [5]: 0.29 nM
- IC50, nM (Function) [6]: 0.5 nM
- Kd [7]: 1.64 nM

B6: 771-hIgG1 (chimeric PAL771) (antibody, V domains shown)
VH: EVQLQESGAELVKPGASVKLSCTASGFNIKDTYMHWVKQRPEQGLEWIGRIDPANGNTKYDPKFPGKATITADTSSNTAYLQLSSLTSEDAAVYYCARPFNYRFYDVYYFDYWGQGTTLTVST
VL: QIVLTQSPAIMSASPGEKVTMTCSASSSVSYMYWYQQKPGSSPRLLIYDTSNLASGVPLRFSGSGSGTSYSLTLSRMEAEDAATYYCQQWSTYPLTFGAGTKLELK
- Kd [1]: 1.17 nM
- Kd [2]: 1.12 nM
- Kd [5]: 1.02 nM
- IC50, nM (Function) [6]: 1 nM
- Kd [7]: 1.43 nM

B8: 767-hIgG1 (chimeric PAL767) (antibody, V domains shown)
VH: EVQLQESGPSLVKPSQTLSLTCSVTGDSITSGYWNWIRKFPGNKLEYMGYISYTGSTYYNPSLKRRISITRDTSKNQYYLQLNSVTTEDTATYYCASQGGWLQAMDYWGQGTSVTVSS
VL: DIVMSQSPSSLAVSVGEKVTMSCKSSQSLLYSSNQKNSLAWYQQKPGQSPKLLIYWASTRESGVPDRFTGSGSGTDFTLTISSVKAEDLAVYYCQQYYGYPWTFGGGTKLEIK
- Kd [1]: 0.23 nM
- Kd [2]: 0.266 nM
- IC50 [3]: 2 nM
- Bind PD-L1-CHO/CHO [4]: > 100 x
- Kd [5]: 0.26 nM
- IC50, nM (Function) [6]: 0.6 nM
- Kd [7]: 0.0522 nM

The remaining lines, values ahead:

- Kd [1]: 1.68 nM
- Kd [2]: 0.867 nM
- IC50 [3]: 2.9 nM
- Bind PD-L1-CHO/CHO [4]: > 100 x
- Kd [5]: 1.57 nM
- IC50, nM (Function) [6]: 0.9 nM
- Kd [7]: 0.043 nM
B1: 788-hIgG1 (chimeric PAL788) (antibody, V domains shown)
VH: QVQLQQPGAELVKPGASVKLSCKASGYTFTSNWMNWVKQRPGRGLEWIGRIHPSDSETHYHQKFKSKATLTVDKSSSTAYIQLSSLTSEDSAVYYCAHSSGDYGRDYWGQGTTLTVSS
VL: NIVLTQSPASLAVSLGQRATISCRASESVDSYGNSFMHWYQQKPGQPPKLLIYLASNLQSGVPARFSGSGSRTDFTLTIDPVEADDAATYYCQQNNEDPWTFGGGTKLEIK

- Kd [1]: 0.12 nM
- Kd [2]: 0.55 nM
- IC50 [3]: 1.6 nM
- Bind PD-L1-CHO/CHO [4]: > 100 x
- Kd [5]: 0.17 nM
- IC50, nM (Function) [6]: 0.5 nM
- Kd [8]: 2.92 nM
- koff [8]: 0.000685 s⁻¹
- kon [8]: 238000 M⁻¹ s⁻¹
- Kd [7]: 0.64 nM
- Kd [9]: 2.59 nM
- koff [9]: 0.000967 s⁻¹
- kon [9]: 373000 M⁻¹ s⁻¹
B2: 769-hIgG1 (chimeric PAL769) (antibody, V domains shown)
VH: EVQLQESGAELVKPGASVTLSCTASGFNIKDTYMHWVKQRPEQGLEWIGRIDPANDNTKYDPKFQDKATITADTSSDTAYLRLSSLTSEDTAVYYCAREGYGGSYGEGYWGQGTTLTVSS
VL: SIVMTQTPKFLLVSAGDRVTITCKASQSVSNDVIWYQQKPGQSPKLLIYYASIRFTGVPDRFAGSGYGTDFTFTINTVQAEDLAVYFCQQDYNSPWTFGGGTKLEIK

- Kd [2]: 0.994 nM
- Kd [10]: 1.7 nM
B5: Avelumab (antibody, human IgG1, lambda, V domains shown)
VH: EVQLLESGGGLVQPGGSLRLSCAASGFTFSSYIMMWVRQAPGKGLEWVSSIYPSGGITFYADTVKGRFTISRDNSKNTLYLQMNSLRAEDTAVYYCARIKLGTVTTVDYWGQGTLVTVSS
VL: QSALTQPASVSGSPGQSITISCTGTSSDVGGYNYVSWYQQHPGKAPKLMIYDVSNRPSGVSNRFSGSKSGNTASLTISGLQAEDEADYYCSSYTSSSTRVFGTGTKVTVLG

- Kd [11]: 1.76 nM
- koff [11]: 0.000629 s⁻¹
- kon [11]: 357000 M⁻¹ s⁻¹
- Kd [12]: 1.82 nM
- koff [12]: 0.000597 s⁻¹
- kon [12]: 328000 M⁻¹ s⁻¹
B7: h769-N93T (h769.T), humanized 769-hIgG1 variant (antibody, V domains shown)
VH: EVQLVQSGAEVKKPGATVKISCKVSGFNIKDTYMHWVQQAPGKGLEWMGLIDPANDNTIYAEKFQGRVTITADTSTDTAYMELSSLRSEDTAVYYCAREGYGGSYGEGYWGQGTLVTVSS
VL: EIVMTQSPPTLSLSPGERVTLSCRASQSVSNDLSWYQQKPGQAPRLLIYYASIRFTGIPARFSGSGSGTDFTLTISSLQPEDFAVYYCQQDYTSPWTFGQGTKVEIK
notes: Human IgG1

Reference: patent US20240067729A1 (PALLEON PHARMACEUTICALS, published 2024)
